target: TYROBP transmembrane domain (TMD), bacterial two-hybrid fusion (UniProt O43914); assay: two-hybrid
Sequence of UniProt O43914 (O43914 22-113): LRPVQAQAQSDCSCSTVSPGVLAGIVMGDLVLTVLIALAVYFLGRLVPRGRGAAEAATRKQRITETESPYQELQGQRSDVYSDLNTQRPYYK

Going from “TREM2 transmembrane domain (TMD), bacterial two-hybrid fusion (from UniProt Q9NZC2 19-230) (domain or fragment)” to PLLIAFLLGPKVLLVVGVSVIYVY (domain or fragment) [SIRPβ1 isoform 202 transmembrane domain (TMD), bacterial two-hybrid fusion], the Miller Units (β-galactosidase, B2H) falls from 903 Miller Units to 94 Miller Units.

PLLVALLLGPKLLLVVGVSAIYIC (domain or fragment) [SIRPβ1 isoform 201 transmembrane domain (TMD), bacterial two-hybrid fusion] showed a Miller Units (β-galactosidase, B2H) of 111 Miller Units.
